Measurements: patent publication US9766245B2, “Method of detecting cancer based on glycan biomarkers” (California Institute of Technology, priority 2013, dated 2017)

Experiments:
[1] = test system: CC(=O)N[C@H]1[C@@H](OP(=O)(O)OP(=O)(O)OC[C@H]2O[C@@H](n3ccc(=O)[nH]c3=O)[C@H](O)[C@@H]2O)O[C@H](CO)[C@H](O)[C@@H]1O; assay: Kinetic analysis of BgtA with UDP-GalNAz and UDP-GalNAc; assay type: biochemical, Helicobacter mustelae; conditions: other: donor substrate, 100 μM acceptor 1, donor 50 to 800 μM, rt; pH 7.5
Procedure: (§1) Kinetic Analysis of BgtA with UDP-GalNAz and UDP-GalNAc.
(§2) Reactions were performed in duplicate with 100 μM acceptor substrate (1), 0.7 μg BgtA, and varying concentrations of UDP-GalNAz or UDP-GalNAc (50 to 800 μM) in 20 mM Tris-HCl pH 7.5, 50 mM NaCl, 10 mM MnCl2 at rt in a total volume of 20 μL. Product formation was monitored at 280 nm by reverse phase-HPLC (Agilent 1100), and time points were taken over the course of 5 min using a linear, 3-95% gradient of B (A: 0.1% aqueous trifluoroacetic acid B: 0.1% trifluoroacetic acid in MeCN) over 8 min with a flow rate of 1 mL/min. The kinetic parameters, apparent Km, Vmax, and kcat, were obtained by linear regression analysis of initial velocity vs. donor substrate concentration using KaleidaGraph (version 4.1.2).

[2] = test system: [N-]=[N+]=NCC(=O)N[C@H]1[C@@H](OP(=O)(O)OP(=O)(O)OC[C@H]2O[C@@H](n3ccc(=O)[nH]c3=O)[C@H](O)[C@@H]2O)O[C@H](CO)[C@H](O)[C@@H]1O; assay: as above; assay type: biochemical, Helicobacter mustelae; conditions: other: donor substrate, 100 μM acceptor 1, donor 50 to 800 μM, rt; pH 7.5
Procedure: as §1, §2

BgtA [3] = target: T1, BgtA (Helicobacter mustelae, UniProt D3UIY4); assay: BgtA activity assay monitored by LC-MS/MS; assay type: biochemical; conditions: donor substrate, 12 h at 4° C.
Procedure: BgtA Activity Assay and Monitoring of Chemoenzymatic Labeling Reactions by LC-MS/MS.
The Fucα(1-2)Gal substrate 1 (10 μM) was dissolved in 20 mM Tris.HCl pH 7.5, 50 mM NaCl, and 5 mM MnCl2. BgtA enzyme (Yi, W.; Shen, J.; Zhou, G.; Li, J.; Wang, P. G. J. Am. Chem. Soc. 2008, 130, 14420.) and UDP-ketoGal 3 (Khidekel, N.; Arndt, S.; Lamarre-Vincent, N.; Lippert, A.; Poulin-Kerstien, K. G.; Ramakrishnan, B.; Qasba, P. K.; Hsieh-Wilson, L. C. J. Am. Chem. Soc. 2003, 125, 16162.) or UDP-GalNAz 2 (Invitrogen) were added to final concentrations of 0.16 mg/mL and 50 μM, respectively, in a final volume of 100 μL. The reaction was incubated at 4° C. in the dark for 12-16 h, and the reaction progress was monitored by LC-MS/MS. To label with aminooxy-biotin 7, the reactions were diluted 5-fold with saturated urea, 2.7 M NaOAc pH 3.9 (50 mM final concentration and pH 4.8), and 7 (5 mM final concentration, Dojindo) and incubated for 20-24 h at rt. To label with ADIBO-biotin 6, 250 μM of 6 (Click Chemistry Tools) was added, and the reaction was incubated for 3 h at rt. […]

BgtA [4] = target: T1, BgtA; assay: Kinetic analysis of BgtA with UDP-GalNAz and UDP-GalNAc; assay type: biochemical; conditions: 100 μM acceptor 1
Procedure: as §1, §2

BgtA [5] = target: T1, BgtA; assay: BgtA labeling of Galβ(1-4)GlcNAc-pNP in solution; assay type: biochemical; conditions: 2 h, 25° C.
BgtA [6] = target: T1, BgtA; assay: Chemoenzymatic labeling of cell lysates, streptavidin capture and Western blotting; assay type: biochemical; conditions: rat brain (olfactory bulb) lysates, BgtA + UDP-GalNAz, alkyne-biotin 11, streptavidin capture, immunoblot; in the presence but not absence of BgtA
BgtA [7] = target: T1, BgtA; assay: Chemoenzymatic labeling on the glycan array; assay type: biochemical; conditions: 0.5, 2 and 12 h, rt; ADIBO-biotin, Cy5-streptavidin; labeled if 12 h signal minus background >1000 relative fluorescence units
Procedure: Chemoenzymatic Labeling on the Glycan Array.
Glycan Array version 5.0 was provided by the Consortium for Functional Glycomics (CFG). Pre-equilibrated arrays were treated with BgtA enzyme (0.16 mg/mL) and 500 μM UDP-GalNAz 2 in 20 mM Tris.HCl pH 7.4, 50 mM NaCl, 2 mM MnCl2 containing 1% bovine serum albumin (BSA) for various times (0, 0.5, 2, and 12 h) at rt, washed 4 times with wash buffer (20 mM Tris.HCl pH 7.4, 50 mM NaCl, 0.1% Triton X-100) and then 4 times with rinse buffer (20 mM Tris.HCl pH 7.4, 50 mM NaCl). The arrays were then incubated with ADIBO-biotin (5 μM) in 20 mM Tris.HCl pH 7.4, 50 mM NaCl for 2 h at rt. […] The arrays were then washed 4 times with wash buffer (containing 0.05% Tween-20 instead of 0.1% Triton X-100), 4 times with rinse buffer, 4 times with water, dried under a low stream of filtered air, and scanned using a PerkinElmer ScanArray Express fluorescence scanner and ImaGene data analysis software (BioDiscovery). Data were analyzed per the guidelines of the CFG. […] Because background fluorescence can be heterogeneous across the array, each array was divided into areas of 10 by 10 spots, or sub-arrays, and a background fluorescence value was calculated within each sub-array by the software. This value was then subtracted from the fluorescence signal for each glycan spot within the sub-array by the software. […]

BgtA (Helicobacter mustelae 12198)
Km [1]: 127 ± 36 µM
Vmax [1]: 0.100 ± 0.010 nmol/min
Km [2]: 168 ± 55 µM
Vmax [2]: 0.020 ± 0.002 nmol/min

[N-]=[N+]=NCC(=O)N[C@H]1[C@@H](OP(=O)(O)OP(=O)(O)OC[C@H]2O[C@@H](n3ccc(=O)[nH]c3=O)[C@H](O)[C@@H]2O)O[C@H](CO)[C@H](O)[C@@H]1O [UDP-GalNAz, UDP-N-azidoacetylgalactosamine]
conversion of substrate 1 to the desired product with BgtA (BgtA [3]): complete conversion
kcat/Km fold lower than natural UDP-GalNAc substrate (BgtA [4]): approximately 7 fold

CC(=O)N[C@H]1[C@H](Oc2ccc([N+](=O)[O-])cc2)O[C@H](CO)[C@@H](O[C@@H]2O[C@H](CO)[C@H](O)[C@H](O)[C@H]2O)[C@@H]1O [Galβ(1-4)GlcNAc-pNP, p-nitrophenyl 2-acetamido-2-deoxy-4-O-(β-D-galactopyranosyl)-β-D-glucopyranoside]
labeling by BgtA in solution (BgtA [5]): failed to label

synapsin I: known Fucα(1-2)Gal glycoprotein in rat brain lysate
chemoenzymatic labeling and detection of glycoprotein (BgtA [6]): chemoenzymatically labeled and detected

CC(=O)N[C@H]1[C@@H](OP(=O)(O)OP(=O)(O)OC[C@H]2O[C@@H](n3ccc(=O)[nH]c3=O)[C@H](O)[C@@H]2O)O[C@H](CO)[C@H](O)[C@@H]1O [UDP-GalNAc]
Vmax fold higher than that of UDP-GalNAz (BgtA [4]): approximately 5 fold

UDP-2-deoxy-2-(acetonyl)-β-D-galactopyranoside [UDP-ketoGal]
conversion of substrate 1 to the desired product with BgtA (BgtA [3]): complete conversion

CC(=O)N[C@@H]1[C@@H](O[C@@H]2O[C@H](CO)[C@H](O)[C@H](O)[C@H]2O[C@@H]2O[C@@H](C)[C@@H](O)[C@@H](O)[C@@H]2O)[C@H](O[C@@H]2O[C@@H](C)[C@@H](O)[C@@H](O)[C@@H]2O)[C@@H](CO)O[C@H]1O [Glycan 61]
labeling of glycan by BgtA and UDP-GalNAz on microarray (BgtA [7]): weak labeling

B1: p44 MAPK: a protein that has not been shown to be fucosylated (protein, UniProt P21708 2-380, looked up)
Mitogen-activated protein …: AAAAAAPGGGGGEPRGTAGVVPVVPGEVEVVKGQPFDVGPRYTQLQYIGEGAYGMVSSAYDHVRKTRVAIKKISPFEHQTYCQRTLREIQILLRFRHENVIGIRDILRAPTLEAMRDVYIVQDLMETDLYKLLKSQQLSNDHICYFLYQILRGLKYIHSANVLHRDLKPSNLLINTTCDLKICDFGLARIADPEHDHTGFLTEYVATRWYRAPEIMLNSKGYTKSIDIWSVGCILAEMLSNRPIFPGKHYLDQLNHILGILGSPSQEDLNCIINMKARNYLQSLPSKTKVAWAKLFPKSDSKALDLLDRMLTFNPNKRITVEEALAHPYLEQYYDPTDEPVAEEPFTFDMELDDLPKERLKELIFQETARFQPGAPEAP
chemoenzymatic labeling and detection of glycoprotein (BgtA [6]): not detected

B2: NCAM: known Fucα(1-2)Gal glycoprotein in rat brain lysate (protein, UniProt P13596 20-858, looked up)
Neural cell adhesion molecule …: LQVDIVPSQGEISVGESKFFLCQVAGDAKDKDISWFSPNGEKLSPNQQRISVVWNDDDSSTLTIYNANIDDAGIYKCVVTAEDGTQSEATVNVKIFQKLMFKNAPTPQEFKEGEDAVIVCDVVSSLPPTIIWKHKGRDVILKKDVRFIVLSNNYLQIRGIKKTDEGTYRCEGRILARGEINFKDIQVIVNVPPTVQARQSIVNATANLGQSVTLVCDADGFPEPTMSWTKDGEPIENEEEDDEKHIFSDDSSELTIRNVDKNDEAEYVCIAENKAGEQDASIHLKVFAKPKITYVENQTAMELEEQVTLTCEASGDPIPSITWRTSTRNISSEEKASWTRPEKQETLDGHMVVRSHARVSSLTLKSIQYTDAGEYICTASNTIGQDSQSMYLEVQYAPKLQGPVAVYTWEGNQVNITCEVFAYPSATISWFRDGQLLPSSNYSNIKIYNTPSASYLEVTPDSENDFGNYNCTAVNRIGQESLEFILVQADTPSSPSIDRVEPYSSTAQVQFDEPEATGGVPILKYKAEWKSLGEEAWHSKWYDAKEANMEGIVTIMGLKPETRYAVRLAALNGKGLGEISAATEFKTQPVREPSAPKLEGQMGEDGNSIKVNLIKQDDGGSPIRHYLVKYRALASEWKPEIRLPSGSDHVMLKSLDWNAEYEVYVVAENQQGKSKAAHFVFRTSAQPTAIPANGSPTAGLSTGAIVGILIVIFVLLLVVMDITCYFLNKCGLLMCIAVNLCGKAGPGAKGKDMEEGKAAFSKDESKEPIVEVRTEEERTPNHDGGKHTEPNETTPLTEPEKGPVETKSEPQESEAKPAPTEVKTVPNEATQTKENESKA
chemoenzymatic labeling and detection of glycoprotein (BgtA [6]): chemoenzymatically labeled and detected
